Results: US20020177231A1 (published 2002)

Target: T1, PYK2 (UniProt Q14289 1-1009, limits assumed)
T1 construct: Endogenous protein in cell lysate, detected with anti-PYK2 monoclonal antibody P47120 (Transduction Labs)
Assay: GST pull-down from JY8-8 lysate, anti-Pyk2 immunoblot
Description: In preparation of cell lysate including Pyk2, JY8-8 cell lysate was prepared by disrupting 4×10⁷ exponentially growing cells in one ml of Ipegal Lysis Buffer (described above) for 10 minutes on ice. Lysate was clarified by centrifugation at 10,000 rpm in a microfuge at 4° C. JY8-8 lysate (corresponding to approximately 1×10⁷ cells) was incubated for 90 minutes with 30 μl glutathione agarose on which approximately one μg of GST or GST-containing fusion protein was immobilized. The resin was washed three times with one ml Ipegal lysis buffer.
Pyk2 present in lysates of JY8-8 cells bound specifically to GST-LD protein but not to GST alone. Pyk2 binding was detected with wild-type GST-LD, and GST-LD proteins with mutations in the second or fourth LD motifs.

T1 sequence (Q14289 whole entry): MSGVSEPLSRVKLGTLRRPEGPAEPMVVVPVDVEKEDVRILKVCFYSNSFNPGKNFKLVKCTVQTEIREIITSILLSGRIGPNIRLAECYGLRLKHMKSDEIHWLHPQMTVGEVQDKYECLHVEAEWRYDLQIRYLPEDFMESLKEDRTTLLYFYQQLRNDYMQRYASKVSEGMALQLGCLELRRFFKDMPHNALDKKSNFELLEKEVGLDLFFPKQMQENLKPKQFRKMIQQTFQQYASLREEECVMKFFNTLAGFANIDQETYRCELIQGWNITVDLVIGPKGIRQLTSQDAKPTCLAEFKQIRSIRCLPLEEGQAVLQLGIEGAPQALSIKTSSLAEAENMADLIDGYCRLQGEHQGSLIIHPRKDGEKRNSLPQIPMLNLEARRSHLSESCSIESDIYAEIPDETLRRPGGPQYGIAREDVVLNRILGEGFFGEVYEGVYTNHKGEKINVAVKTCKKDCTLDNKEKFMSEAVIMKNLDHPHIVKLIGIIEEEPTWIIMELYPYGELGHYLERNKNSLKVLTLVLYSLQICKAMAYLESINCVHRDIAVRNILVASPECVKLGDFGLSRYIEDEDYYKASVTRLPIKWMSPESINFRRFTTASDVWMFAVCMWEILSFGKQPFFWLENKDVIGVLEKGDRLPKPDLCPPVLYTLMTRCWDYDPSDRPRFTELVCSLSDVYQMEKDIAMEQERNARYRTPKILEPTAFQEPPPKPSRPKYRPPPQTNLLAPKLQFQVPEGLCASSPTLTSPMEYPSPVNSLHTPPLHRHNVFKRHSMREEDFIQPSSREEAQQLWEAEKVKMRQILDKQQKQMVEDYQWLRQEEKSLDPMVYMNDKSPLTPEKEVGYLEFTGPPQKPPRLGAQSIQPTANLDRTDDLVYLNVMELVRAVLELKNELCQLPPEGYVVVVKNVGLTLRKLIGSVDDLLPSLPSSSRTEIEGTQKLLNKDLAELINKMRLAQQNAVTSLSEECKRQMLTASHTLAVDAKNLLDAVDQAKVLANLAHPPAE

B1: GST-LD with a mutation in the third LD motif (other)
chain: EELDALLEELERSTLQDSDEYSNPAPLPLDQHSRKETNLDETSEILSIQDNTSPLPAQLVYTTNIQELNVYSEAQEPKESPPPSKTSAAAQAAALMAHLTEMQAKVAVRADAGKKHLPDKQDHKASLDSMLGGLEQELQDLGIATVPK
notes: not shown: glutathione-S-transferase (GST) encoded by vector pGEX-4T-1 (Pharmacia)
binding result: no binding
